Article PMC6358605, “MANF antagonizes nucleotide exchange by the endoplasmic reticulum chaperone BiP” (Nature Communications, 2019)

What was measured:
[1] = molecular target: the molecule itself; test: crystal structure; lidless BiP^V461F (apo) crystals from a co-crystallisation mix with MANF or SAP; only BiP^V461F present in the crystal; contacts between protomers of the lattice
BiP NBD (28–413) = molecular target: T1, BiP NBD (28–413) (Chinese hamster, UniProt G3I8R9 28-413); test: BLI; sequential dipping: streptavidin biosensors loaded with biotinylated MANF, SAP or SAPLIP, dipped in BiP SBD, buffer, BiP NBD with 2 mM ATP, 2 mM ATP, BiP NBD with 2 mM ADP, 2 mM ADP; HKMT buffer; details: both partners purified
T1 construct: UK2039 is named for the crystals and the MABA-ADP assay; also called UK2039; source: E. coli M15, purified (nickel chelating, tag cleavage, anion exchange, SEC); not shown: His6-Smt3, N-terminal, cleaved
T1 sequence (G3I8R9 28-413): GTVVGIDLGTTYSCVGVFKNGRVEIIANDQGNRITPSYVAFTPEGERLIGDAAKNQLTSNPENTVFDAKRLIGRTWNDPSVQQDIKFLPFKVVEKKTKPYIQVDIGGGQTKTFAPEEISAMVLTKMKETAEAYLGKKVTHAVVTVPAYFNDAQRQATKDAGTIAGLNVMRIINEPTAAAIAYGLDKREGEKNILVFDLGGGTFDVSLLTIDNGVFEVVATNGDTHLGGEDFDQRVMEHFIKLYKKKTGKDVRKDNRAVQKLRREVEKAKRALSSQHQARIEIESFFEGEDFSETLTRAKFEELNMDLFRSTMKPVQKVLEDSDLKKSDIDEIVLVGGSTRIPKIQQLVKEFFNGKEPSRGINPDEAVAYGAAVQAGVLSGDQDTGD

Row | Binder | binding result [1] | binding result (BiP NBD (28–413))
1 | lidless Chinese hamster BiP^V461F (28–549) (domain or fragment, BiP, Chinese hamster, residues 28-549 (C-terminal alpha-helical lid truncated), V461F; also called BiP^V461F (apo); UK2121; source: E. coli M15, purified (nickel chelating, anion exchange, SEC)) not shown | binds | 
2 | biotinylated AviTag-MANF^22–179 (natural protein, mouse, UniProt Q9CXI5 22-179, looked up, biotin (on the AviTag, by E. coli BirA), mesencephalic astrocyte-derived neurotrophic factor (MANF), mouse, residues 22-179; Ligand on streptavidin BLI sensors; also called mMANF; UK1987; source: E. coli Origami B (DE3), purified (GSTrap, TEV cleavage), biotinylated in vitro with BirA; not shown: GST, N-terminal, cleaved; AviTag, N-terminal, kept) LRPGDCEVCISYLGRFYQDLKDRDVTFSPATIEEELIKFCREARGKENRLCYYIGATDDAATKIINEVSKPLAHHIPVEKICEKLKKKDSQICELKYDKQIDLSTVDLKKLRVKELKKILDDWGEMCKGCAEKSDYIRKINELMPKYAPKAASARTDL |  | binds
3 | biotinylated AviTag-SAP^119–179 (domain or fragment, mouse, UniProt Q9CXI5 119-179, looked up, also: biotin on AviTag lysine (tag not in chain), C-terminal SAP (SAF-A/B, Acinus, and PIAS) domain of MANF, mouse, residues 119-179; also called SAP domain of MANF; UK2005; source: E. coli Origami B (DE3), purified (GSTrap, TEV cleavage), biotinylated in vitro with BirA; not shown: GST, N-terminal, cleaved; AviTag, N-terminal, kept) DKQIDLSTVDLKKLRVKELKKILDDWGEMCKGCAEKSDYIRKINELMPKYAPKAASARTDL |  | binds
